Source: patent publication US20240376174A1

Tests used:
[1] = target: allophycocyanin (AP) core cylinders of the Synechocystis phycobilisome
[2] = target: allophycocyanin (AP) core cylinders of the Synechocystis phycobilisome; remark: listed apart in the source
[3] = target: allophycocyanin (AP) core cylinders of the Synechocystis phycobilisome; remark: listed apart in the source
[4] = target: CpcA, α-subunit of phycocyanin (Synechocystis sp. PCC 6803); test: densitometry of Zn-chromophore fluorescence bands of affinity-eluted proteins

Substance	Chl a fluorescence yield normalized to Chl, relative to Δcpc (relative to Δcpc (=1.0)) [1]	kII of PSII photochemistry minus the kII of Δcpc, 620 nm actinic light, 12 µM DCMU [1]	Chl a fluorescence yield at 700 nm, normalized to [Chl], relative to Δcpc (relative to Δcpc (=1.00)) [2]	rate constant kII of PSII photochemistry, 620 nm actinic light, DCMU-treated intact cells [3]	CpcB/CpcA Zn-chromophore fluorescence ratio in the eluted fraction [4]
(α,β)3CpcG1*IFN complex	1.55	22.4 % of WT			
(α,β*)3CpcG heterohexameric complex			1.74	1.57 fold of Δcpc	
(α,β*IFN)3CpcG heterohexameric complex			1.84	1.46 fold of Δcpc	
CpcB*S7*6xHis*tev*TTFC fusion protein					1.4
(α,β*TTFC)3CpcG1*IFN heterohexameric complex	1.45	13.4 % of WT			
(α,β*TTFC)3CpcG heterohexameric complex			1.66	1.39 fold of Δcpc	
